This is an account of results in publication doi:10.1101/2023.11.01.565146.

The target in the experiment is Mlph-ABD labelled with ATTO 488 NHS Ester dye (mouse) (UniProt Q91V27). The experiment in a line: MST.
Chain of UniProt Q91V27 (Q91V27 401-590): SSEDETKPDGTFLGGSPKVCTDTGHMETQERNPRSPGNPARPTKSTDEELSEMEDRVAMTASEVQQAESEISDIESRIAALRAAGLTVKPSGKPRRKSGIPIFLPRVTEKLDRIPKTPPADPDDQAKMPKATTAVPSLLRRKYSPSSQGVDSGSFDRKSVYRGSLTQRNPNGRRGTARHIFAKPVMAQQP

The substance “Flag-Myo5a-MTD (residues 1106-1467), bacterial-expressed (domain or fragment)” gave a Kd of 0.562 µM. In other words, the sub-micromolar range.
